Measured values taken from US20160053011A1 (ABCLON, published 2016).

Columns and labels:
[1] = molecular target: ECD; assay: ELISA on HER2 ECD, absorbance; antibody concentration not given
[2] = molecular target: T1, EGFR-ECD-Fc (human, UniProt P00533 25-645); assay: ELISA on extracellular domains of ErbB family proteins, absorbance; antibody concentration not given
T1 construct: extracellular domain; Produced in the same manner as HER2-ECD-Fc; not shown: hinge region of human IgG1 and Fc portion (CH2-CH3), as in HER2-ECD-Fc

[3] = molecular target: T2, HER4 extracellular domain (R&D Systems, #1131-ER-050) (human, UniProt Q15303 26-651); assay: as above
T2 construct: extracellular domain; Purchased
T2 sequence (looked up): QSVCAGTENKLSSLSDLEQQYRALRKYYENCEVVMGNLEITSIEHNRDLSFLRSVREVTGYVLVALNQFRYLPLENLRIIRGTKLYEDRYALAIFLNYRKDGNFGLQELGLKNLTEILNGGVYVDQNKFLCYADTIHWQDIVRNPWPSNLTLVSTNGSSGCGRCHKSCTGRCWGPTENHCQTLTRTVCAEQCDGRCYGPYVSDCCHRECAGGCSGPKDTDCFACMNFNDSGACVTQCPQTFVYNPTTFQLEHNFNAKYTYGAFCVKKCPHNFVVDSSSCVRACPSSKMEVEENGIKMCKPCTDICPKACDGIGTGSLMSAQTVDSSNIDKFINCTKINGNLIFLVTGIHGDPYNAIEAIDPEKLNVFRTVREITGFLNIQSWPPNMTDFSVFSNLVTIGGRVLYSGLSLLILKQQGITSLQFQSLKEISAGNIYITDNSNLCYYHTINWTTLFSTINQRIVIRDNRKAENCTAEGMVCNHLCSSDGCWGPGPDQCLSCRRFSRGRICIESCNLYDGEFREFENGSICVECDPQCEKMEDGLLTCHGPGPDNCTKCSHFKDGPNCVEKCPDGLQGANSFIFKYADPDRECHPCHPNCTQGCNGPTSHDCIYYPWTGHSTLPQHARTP

[4] = molecular target: T3, HER3 extracellular domain (R&D Systems, #348-RB-050) (human, UniProt P21860 20-643); assay: as above
T3 construct: extracellular domain; Purchased

[5] = molecular target: T4, HER2 extracellular domain of a rhesus monkey (Sino Biological Inc., #90020-K08H) (rhesus monkey, UniProt I0FM22 23-652); assay: ELISA on HER2 extracellular domains of five species, absorbance; antibody concentration not given
T4 construct: extracellular domain; Purchased; also called rhesus monkey HER2

[6] = molecular target: T5, Rat (rat, UniProt P06494); assay: as above
T5 construct: extracellular domain; also called HER2 extracellular domain of a rat (Sino Biological Inc., #80079-R08H); rat HER2
T5 sequence (P06494 23-654): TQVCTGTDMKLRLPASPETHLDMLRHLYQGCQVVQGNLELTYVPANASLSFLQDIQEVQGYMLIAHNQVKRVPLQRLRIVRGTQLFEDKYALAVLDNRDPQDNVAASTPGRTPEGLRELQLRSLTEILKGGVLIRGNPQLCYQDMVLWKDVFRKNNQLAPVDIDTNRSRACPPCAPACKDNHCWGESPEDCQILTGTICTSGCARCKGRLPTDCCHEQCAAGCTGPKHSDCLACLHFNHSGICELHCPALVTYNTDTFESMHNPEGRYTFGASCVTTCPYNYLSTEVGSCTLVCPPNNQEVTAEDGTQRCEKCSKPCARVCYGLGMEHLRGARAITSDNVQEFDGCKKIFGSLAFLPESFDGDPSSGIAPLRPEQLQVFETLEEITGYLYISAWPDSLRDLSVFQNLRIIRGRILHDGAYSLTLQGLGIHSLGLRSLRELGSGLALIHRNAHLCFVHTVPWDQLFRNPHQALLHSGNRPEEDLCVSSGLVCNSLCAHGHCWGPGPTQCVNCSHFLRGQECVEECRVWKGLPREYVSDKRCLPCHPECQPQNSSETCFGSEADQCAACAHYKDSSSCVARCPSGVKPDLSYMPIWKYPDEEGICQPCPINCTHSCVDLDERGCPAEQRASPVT

[7] = molecular target: T6, Mouse (mouse, UniProt P70424); assay: as above
T6 construct: extracellular domain; also called HER2 extracellular domain of a mouse (Sino Biological Inc., #50714-M08H); mouse HER2
T6 sequence (P70424 23-653): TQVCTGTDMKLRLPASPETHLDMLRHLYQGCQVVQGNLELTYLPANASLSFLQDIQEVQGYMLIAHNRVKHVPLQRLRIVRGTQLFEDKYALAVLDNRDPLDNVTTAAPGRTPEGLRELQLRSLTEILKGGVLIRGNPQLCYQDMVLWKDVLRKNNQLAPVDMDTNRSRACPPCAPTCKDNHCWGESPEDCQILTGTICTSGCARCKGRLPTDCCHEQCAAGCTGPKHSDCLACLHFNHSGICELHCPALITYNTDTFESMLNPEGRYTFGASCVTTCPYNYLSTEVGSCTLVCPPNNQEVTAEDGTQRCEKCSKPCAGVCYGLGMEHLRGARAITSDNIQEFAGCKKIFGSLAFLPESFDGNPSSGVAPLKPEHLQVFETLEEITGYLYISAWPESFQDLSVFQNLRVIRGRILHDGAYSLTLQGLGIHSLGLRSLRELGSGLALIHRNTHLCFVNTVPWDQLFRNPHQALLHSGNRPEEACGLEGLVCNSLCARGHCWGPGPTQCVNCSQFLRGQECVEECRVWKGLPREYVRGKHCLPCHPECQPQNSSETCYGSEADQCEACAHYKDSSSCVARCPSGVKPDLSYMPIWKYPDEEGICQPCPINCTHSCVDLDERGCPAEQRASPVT

[8] = molecular target: T7, HER2-ECD-His protein (human, UniProt P04626 23-652); assay: SPR (Biacore 3000), antibody captured by anti-human IgG, HER2-ECD-His analyte, 1:1 model
T7 construct: extracellular domain; not shown: His tag
Experimental: All the experiments were performed using Biacore 3000. First, the goat antibodies to human IgG were immobilized at a concentration of 1000 RU to a CM5 sensor chip via an amine coupling method. […] Before binding to HER2-ECD-His protein, each antibody was bound at a rate of 50 μL/min for 180 seconds, and allowed the buffer to flow thereonto for stabilization purpose. […] The sensor chip was recycled by allowing 10 mM Glycine-HCl (pH 1.5) buffer to flow thereonto. All the sensorgram data was analyzed via a 1:1 interaction model using BIAevaluation software.

[9] = molecular target: T8, Domain2 (human, UniProt P04626); assay: ELISA on HER2 sub-domain Fc fusions, absorbance; antibody concentration not given
T8 construct: single sub-domain of the extracellular domain; produced in animal cells, purified with Protein-A; also called HER2 sub-domain 2 with hinge region and Fc region of human IgG1

[10] = molecular target: T9, Domain1 (human, UniProt P04626); assay: as above
T9 construct: single sub-domain of the extracellular domain; produced in animal cells, purified with Protein-A; also called HER2 sub-domain 1 with hinge region and Fc region of human IgG1

[11] = molecular target: T10, Domain3 (human, UniProt P04626); assay: as above
T10 construct: single sub-domain of the extracellular domain; produced in animal cells, purified with Protein-A; also called HER2 sub-domain 3 with hinge region and Fc region of human IgG1

binding result [1]: binds
binding result [2]: no binding
binding result [3]: no binding
binding result [4]: no binding
binding result [5]: binds
binding result [6]: no binding
binding result [7]: no binding
Kd [8]: 16 nM
koff [8]: 0.00047 s⁻¹
kon [8]: 30000 M⁻¹ s⁻¹
binding result [9]: no binding
binding result [10]: no binding
binding result [11]: no binding
B1: 1E11 antibody (antibody, V domains shown)
VH: EVKLVESGGGLVQPGGSLKLSCAASGFTFSSYTMSWVRQTPEKRLEWVAYISNGGGSTYYPDTVKGRFTISRDNAKNTLYLQMSSLKSEDTAMYYCARHLGGTASFDYWGQGTTVTVSS
VL: DIQMTQSPASQSASLGESVTITCLASQTIGTWLAWYQQKPGKSPQLLIYVATSLADGVPSRFSGSGSGTKFSFKISSLQAEDFVSYYCQQLYSTPWTFGGGTKLELK
notes: Mouse variable regions; also called 1E11 clones; chimeric 1E11
